The chains are these.
B1: library; a variant is named by its letters at N, in order (parent)
chain: GAGACCGCAACTGAAAAGTTGTGGNNNNNATAGTGAGTCGCTGCCTGCAAAGACACAACT

± gives the standard deviation of the averaged measurements.

The variants in this data set derive from B1. The data set can be described thus: ligation selection enrichment (abundance after / before one-round selection) (fold); higher = more template-directed ligation activity. Particulars: with T7Psub CACGGAUGCUAAUACGACUCACUAUA; MgCl2 25 mM; 42 °C; 4 h; pH 8.5. In short, it runs like this: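 An RNA ligase library with five randomized core positions, prepared by T7 transcription, was incubated at 0.75 μM with 6 μM RNA substrate in 50 mM EPPS pH 8.5 and 25 mM MgCl2 for 4 h at 42 °C, in two independent experiments. Ligated products were purified by PAGE, reverse transcribed, barcoded by PCR and sequenced on a MiSeq, and reads with a quality score of ≥30 at every randomized position were counted. Enrichment was calculated as abundance after ligation divided by abundance before ligation.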
Regarding GTGGT, the ligation selection enrichment worked out at 0.274 ± 0.0063.
As to ATGTT, the ligation selection enrichment amounted to 0.166 ± 0.064.
Regarding ATGTC, the ligation selection enrichment worked out at 0.1721 ± 0.0012.
The same measure for ATGTG: 0.566 ± 0.096; for ATGTA: 0.206 ± 0.024; for CTTGG: 0.278 ± 0.035.
The same measure for CTTGA: 2.2 ± 0.37; for CTTGT: 0.413 ± 0.078; for CTTGC: 0.446 ± 0.26.
Consider CTGGT, for which the ligation selection enrichment was 0.18 ± 0.078.
The same measure for CTGGG: 0.152 ± 0.051; for GTTAA: 0.876 ± 0.12; for GTTAT: 1.54 ± 0.28.
As for GTTAC, the ligation selection enrichment is 0.3144 ± 0.0017.
As to GTTAG, the ligation selection enrichment worked out at 0.728 ± 0.01.
Then ATTTA, with 0.445 ± 0.1.
Take ATTTG: the ligation selection enrichment worked out at 4.54 ± 1.9.
Turning to ATTTT, the ligation selection enrichment was determined as 0.4707 ± 0.0023.
In the case of ATTTC, the ligation selection enrichment worked out at 0.201 ± 0.0059.
ATTCG: the ligation selection enrichment came out at 3.01 ± 0.51.
ATTCC: the ligation selection enrichment was 0.246 ± 0.02.
For the variant ATTCT, the ligation selection enrichment worked out at 0.471 ± 0.21.
Turning to ATTCA, the ligation selection enrichment is 0.611 ± 0.08.
With CTTAC, the ligation selection enrichment stood at 0.153 ± 0.015.
In the case of CTTAG, the ligation selection enrichment came to 0.243 ± 0.0061.
Regarding CTTAA, the ligation selection enrichment came to 0.257 ± 0.012.
Then CTTAT, with 0.512 ± 0.016; and TTTAA, with 0.18 ± 0.0051; and TTTAC, with 0.218 ± 0.013.
Take TTTAT: the ligation selection enrichment was 1.19 ± 0.53.
The same measure for TTTAG: 0.504 ± 0.034; for TTTCC: 0.258 ± 0.0071; for TTTCA: 0.268 ± 0.026.
As for TTTCG, the ligation selection enrichment turned out to be 0.632 ± 0.068.
The same measure for TTTCT: 0.249 ± 0.052; for GTGTC: 0.144 ± 0.015; for GTGTG: 0.75 ± 0.1.
Turning to GTGTT, the ligation selection enrichment turned out to be 0.277 ± 0.011.
The same measure for GTGTA: 0.265 ± 0.083; for CTTCC: 0.27 ± 0.03.
For the variant CTTCG, the ligation selection enrichment was 1.47 ± 0.55.
CTTCT: the ligation selection enrichment was 0.681 ± 0.22.
The same measure for CTTCA: 0.45 ± 0.093; for TTTTA: 0.205 ± 0.0097; for TTTTG: 1.05 ± 0.27.
Then TTTTT, with 0.314 ± 0.091; and TTTTC, with 0.167 ± 0.027.
CTGTT: the ligation selection enrichment came out at 0.3 ± 0.027.
On to CTGTG, for which the ligation selection enrichment stood at 0.195 ± 0.072.
The same measure for CTGTC: 0.18 ± 0.017; for CTGTA: 0.136 ± 0.0097; for GTTCA: 0.545 ± 0.029.
Regarding GTTCG, the ligation selection enrichment stood at 2.43 ± 0.41.
In the case of GTTCC, the ligation selection enrichment turned out to be 0.33 ± 0.069.
The same measure for GTTCT: 0.587 ± 0.17; for ATTAT: 1.85 ± 0.22.
For ATTAA, the ligation selection enrichment amounted to 0.524 ± 0.12.
The same measure for ATTAG: 1.02 ± 0.19; for ATTAC: 0.217 ± 0.042.
Then TTTGT, with 0.164 ± 0.11; and TTTGA, with 0.78 ± 0.039; and TTTGG, with 0.466 ± 0.024.
The same measure for TTTGC: 0.319 ± 0.085; for TTGTT: 0.311 ± 0.15.
Take TTGTG: the ligation selection enrichment was found to be 0.223 ± 0.015.
On to TTGTA, for which the ligation selection enrichment stood at 0.685 ± 0.11.
With TTGTC, the ligation selection enrichment was 0.271 ± 0.021.
Take ATTGC: the ligation selection enrichment came to 0.765 ± 0.2.
The same measure for ATTGA: 6.7 ± 0.45.
On to ATTGT, for which the ligation selection enrichment worked out at 0.543 ± 0.093.
On to ATTGG, for which the ligation selection enrichment came out at 0.805 ± 0.035.
Then GTTTT, with 0.277 ± 0.048.
On to GTTTC, for which the ligation selection enrichment came out at 0.169 ± 0.068.
In the case of GTTTG, the ligation selection enrichment came out at 2.05 ± 0.47.
Turning to GTTTA, the ligation selection enrichment stood at 0.446 ± 0.026.
On to CTTTG, for which the ligation selection enrichment is 1.41 ± 0.7.
For the variant CTTTT, the ligation selection enrichment amounted to 0.63109 ± 0.00025.
Regarding CTTTC, the ligation selection enrichment was found to be 0.2049 ± 0.00081.
In the case of CTTTA, the ligation selection enrichment turned out to be 0.398 ± 0.12.
In the case of GTTGA, the ligation selection enrichment turned out to be 5.22 ± 0.32.
With GTTGT, the ligation selection enrichment worked out at 0.353 ± 0.054.
Take GTTGC: the ligation selection enrichment is 0.769 ± 0.034.
For GTTGG, the ligation selection enrichment came out at 0.739 ± 0.059.
As to TTGGT, the ligation selection enrichment came to 0.212 ± 0.12.
With TTGGG, the ligation selection enrichment was found to be 0.218 ± 0.023.
The same measure for ATGGT: 0.181 ± 0.092; for ATGGG: 0.265 ± 0.05.

The record behind these values is the supplement of paper PMC10219994.
